The values below come from PMC5932101 (EJNMMI Radiopharmacy and Chemistry, 2018).

Data set [1] is described as follows: in vivo. Details: species or system mice. To be noted: female, athymic Balb/c nude, mouse, iv, total radioactivity. On the procedure:
(§1) All animal experiments complied with the current laws of the Federal Republic of Germany and were conducted according to German Animal welfare guidelines. Normal female athymic Balb/c nude mice (17–20 g, 4–6 weeks old) were obtained from Janvier SAS (St. Berthevin Cedex, France). Mice were provided with food and water ad libitum. U-87 MG tumors were inoculated on the right shoulder by sub-cutaneous injection of 5×10^6 cells in a 100 μL cell suspension of a 1:1 v/v mixture of media with reconstituted basement membrane (GFR BD Matrigel™, Corning BV, Amsterdam, Holland).
For each compound, a total of five animals were injected with [^68Ga]3 (7–11 MBq) in 100 μL sterile filtered phosphate buffered saline via a tail vein. At 1 h p.i., animals were sacrificed by isoflurane anesthesia. Organs of interest were dissected, weighed and assayed for radioactivity in a gamma counter. The percent injected activity per gram (%IA g^− 1) for each tissue was calculated by comparison of the tissue counts to a standard sample prepared from the injectate.

Data set [2] in a line: in vivo. More on the design: species or system mice. As to conditions: female, athymic Balb/c nude, mouse, iv, total radioactivity. On the procedure:
as §1
For PET imaging studies, mice (n = 3) were injected with 100 μL sterile filtered phosphate buffered saline formulations pH 7.4 of [^68Ga]3 (7–11 MBq) by intravenous tail-vein injection and anesthetized with isoflurane (2–4% in air) 5–10 min prior image acquisition. PET imaging was performed on a Focus 120 microPET scanner at 1 h after administration. Data were acquired 1 h post administration in list mode. Reconstruction was performed using unweighted OSEM2D. Image analysis was performed using AMIDE. Image counts per second per voxel (cps/voxel) were calibrated to activity concentrations (Bq mL^− 1) by measuring a 3.5 cm cylinder phantom filled with a known concentration of radioactivity.
The source holds these as a separate data set.

For data set [3] the following is noted: cited from earlier work. The source says:
The radiolabelled conjugate [^68Ga]3 is highly hydrophilic with a log Doct/PBS value of − 3.89 ± 0.02.

The test system of data set [4] is mice bearing αvß3-positive U-87 MG tumors. As to conditions: mouse, in vivo; cited from earlier work. As to the method:
Table 1 Ex vivo biodistribution of [^68Ga]3 in mice bearing αvß3-positive U-87 MG tumors at 1 h p.i. along with blocking studies in comparison to [^68Ga]Ga-NODAGA-c(RGDfK) and [^68Ga]Ga-DOTA-c(RGDfK) (data taken from ref. Dumont et al. [2011]). Data are expressed as %IA g^− 1 and represent mean ± SD (n = 5) | column: [^68Ga]Ga-NODAGA-c(RGDfK) / 1 h; [^68Ga]Ga-DOTA-c(RGDfK) / 1 h || Biodistribution data for [^68Ga]3 are presented in Table 1. For comparison, equivalent data taken from the literature are also given for compounds [^68Ga]Ga-NODAGA-c(RGDfK) and [^68Ga]Ga-DOTA-c(RGDfK) (Dumont et al. [2011]). The primary difference between these three compounds is the change in chelator.

In data set [5] the test system is U-87 MG tumor bearing mice. To be noted: mouse, in vivo; cited from earlier work. As to the method:
In addition to the ex vivo biodistribution studies, the distribution profile of [^68Ga]3 was also assessed 1 h after administration by small-animal PET imaging. Corresponding transverse and coronal maximum intensity projections of [^68Ga]3 in αvß3 xenograft bearing mice along with blocking studies are given Fig. 2. The results of the biodistribution study were confirmed by PET imaging. The αvß3 positive U-87 MG tumors as well as the liver and the kidneys were clearly visible on the PET images. The tumor uptake of [^68Ga]3 was determined to 2.48 ± 0.14 %IA g^− 1. The differences in blood and ti ...

As usually defined, the tissue uptake is the percentage of the injected dose found per gram of tissue. Turning to `Cn1ccnc1CN1CCN(CC(=O)NCCCC[C@@H]2NC(=O)[C@@H](Cc3ccccc3)NC(=O)[C@H](CC(=O)O)NC(=O)CNC(=O)[C@H](CCCNC(=N)N)NC2=O)CCN(Cc2nccn2C)CC1` [[^68Ga]3, [^68Ga]Ga-NODIA-Me-c(RGDfK), metal not drawn], the tissue uptake at 1 h in the data set “in vivo [1]” (Accumulation in all other organs (other than tumor, kidney, liver)) was below 1 %ID/g. Moreover, the tissue to tissue ratio at 1 h in “in vivo [1]” (Tumor-to-blood ratio) is 3.91 ± 0.43; in the data set “in vivo [1]” (Tumor-to-kidney ratio) it was 1.27 ± 0.04; in “in vivo [1]” (Tumor-to-liver ratio), 2.08 ± 0.18; in “in vivo [1]” (Tumor-to-muscle ratio) it was 11.7 ± 0.29; in the data set “in vivo [2]” it was 6.76.
Regarding [^68Ga]Ga-DOTA-c(RGDfK) (head to tail), in data set [3], the “log D” value is given as “− 2.86 ± 0.01”. Further, in data set [4], the Tumor-to-blood ratio was 9.24 ± 1.12, the Tumor-to-kidney ratio was 1.57 ± 0.14, the Tumor-to-liver ratio is 2.25 ± 0.37 and the Tumor-to-muscle ratio is on record as 12.37 ± 1.81. Moreover, the “Tumor-to-background ratio (PET)” value in data set [5] is listed as 3.28.
With “[^68Ga]Ga-NODAGA-c(RGDfK) (head to tail)”, the “log D” value in data set [3] is recorded as “− 3.27 ± 0.01”. Also, in data set [4], the Tumor-to-blood ratio is on record as 27.67 ± 7.01, the Tumor-to-kidney ratio is 2.64 ± 0.31, the Tumor-to-liver ratio is reported as 2.75 ± 0.31 and the Tumor-to-muscle ratio is given as 12.80 ± 5.25. Moreover, in data set [5], the “Tumor-to-background ratio (PET)” value is reported as 11.97.
